This is an account of results in patent US20130058934A1 (Novartis, published 2013).

Broadly, the EC50 is the concentration giving half of the maximal effect. Read a high EC50 as a less potent agent. The koff is the first-order rate constant of dissociation. A higher koff goes with a short-lived complex. By kon is commonly meant the rate constant with which the complex forms.

One experiment concerns the target human LRP6 (human, UniProt O75581 20-1613). In words: cell-based or functional assay.
Experiment [1] deals with T1, LRP6-Fc (R&D Systems, catalog No: 1505-LR) (human, UniProt O75581 20-1370).
T1 construct: Purchased reagent; also called LRP6 protein; 360 KD homodimer antigen LRP6-Fc; not shown: Fc part of the purchased fusion
T1 sequence (looked up): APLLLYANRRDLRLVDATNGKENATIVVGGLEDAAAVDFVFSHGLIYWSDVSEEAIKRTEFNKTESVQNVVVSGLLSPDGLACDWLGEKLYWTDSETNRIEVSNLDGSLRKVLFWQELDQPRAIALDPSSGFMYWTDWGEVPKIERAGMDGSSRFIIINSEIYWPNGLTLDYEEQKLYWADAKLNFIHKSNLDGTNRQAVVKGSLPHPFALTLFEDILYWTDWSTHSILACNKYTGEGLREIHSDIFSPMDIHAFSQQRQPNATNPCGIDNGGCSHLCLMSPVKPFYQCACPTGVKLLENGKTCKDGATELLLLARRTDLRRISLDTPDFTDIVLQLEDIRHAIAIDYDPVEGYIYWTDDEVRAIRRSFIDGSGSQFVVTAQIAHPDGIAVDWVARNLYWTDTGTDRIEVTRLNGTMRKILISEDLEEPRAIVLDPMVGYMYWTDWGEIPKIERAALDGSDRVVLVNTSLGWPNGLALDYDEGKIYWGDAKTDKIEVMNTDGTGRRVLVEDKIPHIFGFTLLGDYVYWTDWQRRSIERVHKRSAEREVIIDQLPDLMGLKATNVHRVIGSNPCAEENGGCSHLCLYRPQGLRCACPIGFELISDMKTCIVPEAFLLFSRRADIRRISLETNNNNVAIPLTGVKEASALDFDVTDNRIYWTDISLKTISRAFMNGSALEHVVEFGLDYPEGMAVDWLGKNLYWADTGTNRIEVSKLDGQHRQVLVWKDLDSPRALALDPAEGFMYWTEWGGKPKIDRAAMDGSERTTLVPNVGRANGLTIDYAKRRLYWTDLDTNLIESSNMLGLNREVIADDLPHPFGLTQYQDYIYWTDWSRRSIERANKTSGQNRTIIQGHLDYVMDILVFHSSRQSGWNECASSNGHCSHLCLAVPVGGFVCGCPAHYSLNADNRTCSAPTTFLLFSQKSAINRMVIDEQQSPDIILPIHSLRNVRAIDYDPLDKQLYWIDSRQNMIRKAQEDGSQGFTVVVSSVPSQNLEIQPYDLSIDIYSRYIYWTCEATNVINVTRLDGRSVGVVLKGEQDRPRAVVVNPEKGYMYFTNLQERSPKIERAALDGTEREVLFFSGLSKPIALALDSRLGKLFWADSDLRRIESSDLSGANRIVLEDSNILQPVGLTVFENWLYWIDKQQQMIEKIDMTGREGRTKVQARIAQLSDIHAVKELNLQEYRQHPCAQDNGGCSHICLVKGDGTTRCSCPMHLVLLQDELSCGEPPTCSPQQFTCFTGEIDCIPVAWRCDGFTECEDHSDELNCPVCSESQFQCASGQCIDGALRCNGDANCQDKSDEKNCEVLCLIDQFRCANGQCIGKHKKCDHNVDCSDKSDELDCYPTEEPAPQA
The experiment is described as follows: ELISA on coated LRP6-Fc, detection with pentaHis-HRP. How it is done:
(§1) Binding EC₅₀ of scFvs against LRP6 protein was measured by ELISA. Maxisorp plate was coated with LRP6-Fc (R&D Systems, catalog No: 1505-LR) at 3 μg/ml at 4° C. overnight. The plate was blocked with 50 μl of 2% BSA for one hour, and washed five times with the wash solution. The samples were diluted with 1% BSA accordingly. The plate was incubated at RT for 1 h, and washed for 3 times. Detection was done by adding 50 μl pentaHis-HRP (Qiagen Mat. No. 1014992) at 1:2000 dilution in 1% BSA, incubated at RT for 1 h, and washed 3 times. 50 μl of substrate reagent A plus B (R&D systems) was added, then incubated for 5-20 min depending on the color. The reaction was stopped by adding 25 μl of the stop solution, followed by plate reading at 450 nm.
Affinity analysis ELISA EC₅₀ was carried out for both scFv08168 and scFv06475 wild type and variants.
A general note: ELISA stands for enzyme-linked immunosorbent assay.

Experiment [2] deals with T1, LRP6-Fc (R&D Systems, catalog No: …). In words: Proteon XPR36, scFv captured by anti-His IgG, LRP6-Fc as analyte, bivalent analyte model. How it is done:
Kinetics experiments were performed using BioRad's Proteon XPR36 biosensor. All experiments were performed at room temperature using PBST (phosphate buffered saline with 0.05% Tween-20) as the running buffer. All of the six vertical channels on a GLM chip were activated for 5 min at a flow rate of 30 μl/min using freshly prepared mixture of EDC (400 mM) and sNHS (100 mM). Anti-His mouse IgG1 (R&D systems, catalog No: MAB050) was diluted to 20 μg/ml in 10 mM sodium acetate, PH 5.0 and coupled to the chip for 5 min along separate vertical channels at a flow rate of 30 μl/min. 1 M ethanolamine was then injected for 5 min at 30 μl/min to deactivate the un-reacted sNHS groups. 2 μg/ml MOR08168 scFv wild type or 2 μg/ml MOR08168D1 mutant was then immobilized on different vertical channels for 15 sec at 100 μl/min followed by two 1 min injection of the running buffer at 30 μl/min in the horizontal direction. The sixth vertical channel was used as the channel reference and no ligand was immobilized on this channel. […] Association was monitored for 5 min and dissociation was monitored for 20 min. Buffer was injected in the sixth channel to serve as a row reference for real time baseline drifting correction. […] Kinetics analysis on the Proteon was performed in Proteon Manager v.2.1.1. […]

The target is the same in experiment [3]. The experiment is described as follows: ELISA on coated LRP6-Fc, pentaHis-HRP detection. How it is done:
as §1
For scFv06475, there were two mutations affecting the activity as detected by ELISA and Proteon kinetics analysis.

The target in experiment [4] is T2, LRP6 PD3/4 (human, UniProt O75581 631-1246).
T2 construct: range 631-1246; Recombinant soluble fragment; also called Propeller Domains 3-4 of LRP6; recombinant LRP6 PD3/4
T2 sequence (looked up): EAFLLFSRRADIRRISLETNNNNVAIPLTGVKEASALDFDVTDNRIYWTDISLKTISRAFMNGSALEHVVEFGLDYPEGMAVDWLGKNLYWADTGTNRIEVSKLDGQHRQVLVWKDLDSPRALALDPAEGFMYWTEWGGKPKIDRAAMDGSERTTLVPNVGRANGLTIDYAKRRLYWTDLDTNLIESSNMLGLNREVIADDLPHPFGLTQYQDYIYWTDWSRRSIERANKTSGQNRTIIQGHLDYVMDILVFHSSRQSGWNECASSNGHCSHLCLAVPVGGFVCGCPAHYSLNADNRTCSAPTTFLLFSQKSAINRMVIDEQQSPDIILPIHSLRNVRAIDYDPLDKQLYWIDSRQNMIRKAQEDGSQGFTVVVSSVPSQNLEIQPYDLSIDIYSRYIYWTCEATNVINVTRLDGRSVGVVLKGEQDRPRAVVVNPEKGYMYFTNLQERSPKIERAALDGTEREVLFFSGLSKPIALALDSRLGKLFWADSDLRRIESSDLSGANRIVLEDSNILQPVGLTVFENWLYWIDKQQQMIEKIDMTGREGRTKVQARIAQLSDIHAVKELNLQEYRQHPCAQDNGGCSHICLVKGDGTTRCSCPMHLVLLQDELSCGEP
The experiment is described as follows: Biacore T-100 SPR, antibody captured by anti-human IgG Fc on a CM4 chip, PD3/4 injected; N = 4. How it is done: (§2) The carboxymethyl dextran surface was activated with a 7 min injection of a 1:1 ratio of 0.4 M EDC (1-Ethyl-3-[3-dimethylaminopropyl]carbodiimide hydrochloride) and 0.1 M NHS(N-hydroxysuccinimide). […] PD1/2 and PD3/4 were prepared as two fold concentration series starting at 50 nM, and injected at 30 μl/min for 1 min. […] The surfaces were then regenerated two times with 10 mM glycine (pH 2.2). […] PD3/4 at a saturating concentration of 100 nM was then flowed over the surface at a flow rate of 30 μl/min for 30 min. A saturating concentration of 100 nM PD1/2 was injected immediately after the PD3/4. The dissociation constant (KD), association (kₒₙ), and dissociation (koff) rates were calculated from the baseline subtracted corrected binding curves using the BIAevaluation software (GE Healthcare).
On the technique in general: Surface plasmon resonance follows binding to a sensor surface in real time, without labels.

For a further experiment, the target named is T3, cynoFcRn (cynomolgus monkey, UniProt Q8SPV9).
T3 construct: also called cynomolgus FcRn
In words: Biacore, cynoFcRn at pH 6.0.

A further experiment concerns the target human FcRn (human, UniProt P55899 24-297; P61769 21-119, limits assumed). In words: Biacore, pH 6.0; human FcRn at pH 6.0, Biacore; IgG-scFv format (only low level binding at pH 7.4).
Experiment [5] has as its target T2, LRP6 PD3/4. In words: Biacore T-100 SPR, antibody captured by anti-human IgG Fc on a CM4 chip, PD3/4 injected; N = 3. How it is done:
as §2

Sequence of human FcRn (P55899 24-297 limits assumed, form in doubt, chain 1 of 2): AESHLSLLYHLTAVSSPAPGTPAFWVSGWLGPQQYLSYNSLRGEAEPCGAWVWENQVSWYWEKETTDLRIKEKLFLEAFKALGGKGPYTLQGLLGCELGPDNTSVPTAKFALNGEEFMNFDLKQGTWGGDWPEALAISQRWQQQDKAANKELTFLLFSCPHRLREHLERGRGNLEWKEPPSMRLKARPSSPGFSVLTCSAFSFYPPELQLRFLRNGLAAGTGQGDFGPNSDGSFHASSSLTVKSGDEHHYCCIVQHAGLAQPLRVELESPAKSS
Sequence of human FcRn (P61769 21-119 limits assumed, form in doubt, chain 2 of 2): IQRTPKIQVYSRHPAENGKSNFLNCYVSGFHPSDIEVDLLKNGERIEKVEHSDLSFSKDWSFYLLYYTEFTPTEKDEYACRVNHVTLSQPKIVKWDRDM

B1: scFv08168 wild type (scFv, V domains shown)
VH: QVQLVESGGGLVQPGGSLRLSCAASGFTFSDYVINWVRQAPGKGLEWVSGISWSGVNTHYADSVKGRFTISRDNSKNTLYLQMNSLRAEDTAVYYCARLGATANNIRYKFMDVWGQGTLVTVSS
VL: DIELTQPPSVSVAPGQTARISCSGDSLRNKVYWYQQKPGQAPVLVIYKNNRPSGIPERFSGSNSGNTATLTISGTQAEDEADYYCQSYDGQKSLVFGGGTKLTVL
notes: One polypeptide (scFv with His tag); also called MOR08168 scFv wild type
For B1, in the experiment with human LRP6, the “IC50 by STF assay for Wnt1 inhibition” value came out at 7.41 nM. The EC50 in experiment [1] was found to be 2.04 nM. Further, the Kd in experiment [2] was found to be 3.82 nM.

B2: scFv08168 D1 (VH:I34M + VH:S49A) (scFv, V domains shown)
VH: QVQLVESGGGLVQPGGSLRLSCAASGFTFSDYVMNWVRQAPGKGLEWVAGISWSGVNTHYADSVKGRFTISRDNSKNTLYLQMNSLRAEDTAVYYCARLGATANNIRYKFMDVWGQGTLVTVSS
VL: DIELTQPPSVSVAPGQTARISCSGDSLRNKVYWYQQKPGQAPVLVIYKNNRPSGIPERFSGSNSGNTATLTISGTQAEDEADYYCQSYDGQKSLVFGGGTKLTVL
notes: Double mutant of scFv08168 (His tag); also called MOR08168D1 mutant; double mutant D1
In the case of B2, in experiment [1], the concentration giving a half-maximal response (EC50) amounted to 1.61 nM. Further, in experiment [2], the Kd came to 2.55 nM.

B3: scFv06475 VH:G34V (scFv, name in Kabat numbering, V domains shown)
VH: QVQLKESGPALVKPTQTLTLTCTFSGFSLSNRGVGVGWIRQPPGKALEWLAWIDWDDDKSYSTSLKTRLTISKDTSKNQVVLTMTNMDPVDTATYYCARMHLPLVFDSWGQGTLVTVSS
VL: DIVLTQSPATLSLSPGERATLSCRASQFIGSRYLAWYQQKPGQAPRLLIYGASNRATGVPARFSGSGSGTDFTLTISSLEPEDFATYYCQQYYDYPQTFGQGTKVEIK
notes: Point mutant of scFv06475 (His tag)
Turning to B3, the EC50 was 27 nM in experiment [3] and 27.4 nM in experiment [1].

B4: MOR06475 IgG (antibody, V domains shown)
VH: QVQLKESGPALVKPTQTLTLTCTFSGFSLSNRGGGVGWIRQPPGKALEWLAWIDWDDDKSYSTSLKTRLTISKDTSKNQVVLTMTNMDPVDTATYYCARMHLPLVFDSWGQGTLVTVSS
VL: DIVLTQSPATLSLSPGERATLSCRASQFIGSRYLAWYQQKPGQAPRLLIYGASNRATGVPARFSGSGSGTDFTLTISSLEPEDFATYYCQQYYDYPQTFGQGTKVEIKR
notes: also called MOR6475; MOR6475 (propeller 3 antibody)
In the experiment with LRP6 PD3/4 [4], B4 returned a Kd of 1.13 nM, a koff of 0.000217 s⁻¹ and a kon of 201000 M⁻¹ s⁻¹.

B5: scFv06475 VH:I37F (scFv, name in Kabat numbering, V domains shown)
VH: QVQLKESGPALVKPTQTLTLTCTFSGFSLSNRGGGVGWFRQPPGKALEWLAWIDWDDDKSYSTSLKTRLTISKDTSKNQVVLTMTNMDPVDTATYYCARMHLPLVFDSWGQGTLVTVSS
VL: DIVLTQSPATLSLSPGERATLSCRASQFIGSRYLAWYQQKPGQAPRLLIYGASNRATGVPARFSGSGSGTDFTLTISSLEPEDFATYYCQQYYDYPQTFGQGTKVEIK
notes: as for B3
Turning to B5, in experiment [3], the EC50 turned out to be 4.3 nM.

B6: anti-LRP6 MOR08168hIgG1LALA 6475 scfv (bispecific antibody)
heavy: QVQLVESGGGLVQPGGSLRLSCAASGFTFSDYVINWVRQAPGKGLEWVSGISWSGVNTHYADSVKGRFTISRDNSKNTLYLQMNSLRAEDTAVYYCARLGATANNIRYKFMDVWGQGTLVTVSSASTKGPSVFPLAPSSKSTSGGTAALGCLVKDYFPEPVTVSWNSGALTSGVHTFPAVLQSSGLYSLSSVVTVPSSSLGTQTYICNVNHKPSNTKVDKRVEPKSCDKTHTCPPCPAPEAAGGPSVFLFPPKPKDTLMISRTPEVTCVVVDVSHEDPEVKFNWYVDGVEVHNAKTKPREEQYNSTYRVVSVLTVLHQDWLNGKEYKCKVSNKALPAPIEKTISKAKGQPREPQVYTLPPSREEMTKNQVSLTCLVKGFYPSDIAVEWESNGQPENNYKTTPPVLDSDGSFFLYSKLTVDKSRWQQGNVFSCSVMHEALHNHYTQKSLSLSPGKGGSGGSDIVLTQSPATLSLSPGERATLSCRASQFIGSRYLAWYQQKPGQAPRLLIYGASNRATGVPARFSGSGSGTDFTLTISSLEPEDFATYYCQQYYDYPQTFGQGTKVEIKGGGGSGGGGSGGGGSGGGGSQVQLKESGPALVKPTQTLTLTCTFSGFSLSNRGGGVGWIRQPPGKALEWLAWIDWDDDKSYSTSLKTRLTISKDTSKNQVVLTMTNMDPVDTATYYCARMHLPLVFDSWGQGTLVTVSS
light: DIELTQPPSVSVAPGQTARISCSGDSLRNKVYWYQQKPGQAPVLVIYKNNRPSGIPERFSGSNSGNTATLTISGTQAEDEADYYCQSYDGQKSLVFGGGTKLTVLGQPKAAPSVTLFPPSSEELQANKATLVCLISDFYPGAVTVAWKADSSPVKAGVETTTPSKQSNNKYAASSYLSLTPEQWKSHRSYSCQVTHEGSTVEKTVAPTECS
notes: Biparatopic: MOR08168 IgG1 LALA with MOR06475 scFv (VL-(Gly4Ser)4-VH) fused by a (GlyGlySer)2 linker to the C-terminus of CH3; also called Biparatopic anti-LRP6 IgG scFv
In turn, B6 showed a Kd in the experiment with cynoFcRn of 120 nM. The Kd with human FcRn was found to be 21 nM. In the experiment with LRP6 PD3/4 [5], the Kd amounted to 1.93 nM, the koff was 0.000314 s⁻¹ and the kon was found to be 211000 M⁻¹ s⁻¹.
